± gives the uncertainty stated by the source.
Test: self-splicing fitness, log relative to wild type (ln ratio); higher = more splicing; Tetrahymena group I intron in knt gene, E. coli kanamycin selection, DiMSum; sequences stand for … in CUCUCU…GGAGGGAAAAGUUAUCAGGCAUGCACCUGGUAGCUAGUCUUUAAACCAAUAGAUUGCAUCGGUUUAAAAGGCAAGACCGUCAAAUUGCGGGAAAGGGGUCAACAGCCGUUCAGUACCAAGUCUCAGGGGAAACUUUGAGAUGGCCUUGCAAAGGGUAUGGUAAUAAGCUGACGGACAUGGUCCUAACCACGCAGCCAAGUCCUAAGUCAACAGAUCUUCUGUUGAUAUGGAUGCAGUUCACAGACUAAAUGUCGGUCGGGGAAGAUGUAUUCUUCUCAUAAGAUAUAGUCGGACCUCUCCUUAAUGGGAGCUAGCGGAUGAAGUGAUGCAACACUGGAGCCGCUGGGAACUAAUUUGUAUGCGAAAGUAUAUUGAUUAGUUUUGGAGUACUCGUGGUCG
In short: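 Fitness was computed with DiMSum as the error-weighted combination of replicate fold changes, kanamycin versus none, each normalised to wild type. The library randomised all eight intron nucleotides of the P1ex region, with the intron placed in the knt kanamycin-resistance gene on pET-22b(+) in E. coli BL21(DE3). Six replicate transformations were grown overnight at 37°C or 30°C on LB agar with or without 25 μg/mL kanamycin, plus 100 μg/mL carbenicillin, 50 μM IPTG and 0.2% rhamnose. Pooled colonies were amplicon-sequenced on an Illumina HiSeq 2500.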

Row | Sequence | self-splicing fitness (ln) (30 °C) | self-splicing fitness (ln) (37 °C)
1 | AGCAAGCAAUAUUACGGCGG | -1.29 ± 0.083 | 0.133 ± 0.11
2 | GGACAGCAAUAUUACGUAUU | -0.426 ± 0.049 | -0.492 ± 0.068
3 | UCCAAGCAAUAUUACGUUAA | -2.37 ± 0.12 | -0.463 ± 0.1
4 | UUAGAGCAAUAUUACGAUGC | -2.04 ± 0.21 | -2.57 ± 0.41
5 | CGACAGCAAUAUUACGGAUA | -2.09 ± 0.14 | -1.91 ± 0.15
6 | AAGCAGCAAUAUUACGGUCC | -1.17 ± 0.1 | -0.771 ± 0.17
7 | UCCAAGCAAUAUUACGCGCA | 0.131 ± 0.064 | 0.306 ± 0.079
8 | UCCCAGCAAUAUUACGCUGC | -3.59 ± 0.24 | -2.75 ± 0.34
9 | GUGAAGCAAUAUUACGUAGC | -3.31 ± 0.15 | -1.84 ± 0.18
10 | UGUAAGCAAUAUUACGGAGA | -2.88 ± 0.32 | -1.97 ± 0.42
11 | AAGUAGCAAUAUUACGAUAU | -1.21 ± 0.066 | -0.506 ± 0.084
12 | CGCUAGCAAUAUUACGUGCC | -1.58 ± 0.11 | -0.959 ± 0.15
13 | AAGUAGCAAUAUUACGACUG | 0.323 ± 0.082 | -0.593 ± 0.11
14 | AACAAGCAAUAUUACGUUGA | -3.31 ± 0.13 | -1.95 ± 0.1
15 | GUCGAGCAAUAUUACGGAGG | -3.76 ± 0.39 | -2.17 ± 0.23
16 | GGCCAGCAAUAUUACGUUUA | -2.69 ± 0.19 | -1.87 ± 0.16
17 | GAAUAGCAAUAUUACGUUAA | -2.56 ± 0.17 | -1.9 ± 0.15
18 | AUAUAGCAAUAUUACGAUUA | -0.958 ± 0.23 | -0.617 ± 0.2
19 | AAGAAGCAAUAUUACGUCUA | -0.234 ± 0.066 | -0.565 ± 0.098
20 | AGGCAGCAAUAUUACGGCAU | -0.346 ± 0.062 | 0.15 ± 0.09
21 | UGUGAGCAAUAUUACGGCCA | -0.0854 ± 0.18 | 0.465 ± 0.34
22 | AUGAAGCAAUAUUACGUCUC | -1.1 ± 0.14 | -1.22 ± 0.14
23 | CGUUAGCAAUAUUACGUCCC | – | -0.641 ± 0.36
24 | GAAAAGCAAUAUUACGGGUG | -2.23 ± 0.079 | -1.18 ± 0.1
25 | CUACAGCAAUAUUACGGCUU | -2.38 ± 0.15 | –

Row | Sequence | self-splicing fitness (ln) (30 °C) | self-splicing fitness (ln) (37 °C)
26 | AAUCAGCAAUAUUACGGAUC | -0.358 ± 0.073 | 0.17 ± 0.1
27 | UCUCAGCAAUAUUACGCGGA | -2.54 ± 0.37 | -2.46 ± 0.29
28 | UAACAGCAAUAUUACGGGUG | -0.577 ± 0.049 | -0.256 ± 0.068
29 | CUACAGCAAUAUUACGGACG | -0.196 ± 0.072 | 0.601 ± 0.1
30 | AGCCAGCAAUAUUACGAGGC | -3.6 ± 0.2 | -2.02 ± 0.19
31 | AAAAAGCAAUAUUACGUUCG | -0.479 ± 0.078 | -1.04 ± 0.1
32 | UUGAAGCAAUAUUACGGUAG | -0.0974 ± 0.088 | 0.0801 ± 0.12
33 | CGGAAGCAAUAUUACGAUAG | -1.11 ± 0.082 | 0.166 ± 0.1
34 | UAUUAGCAAUAUUACGGAGU | -3.84 ± 0.43 | -2.01 ± 0.29
35 | GGAAAGCAAUAUUACGGAUU | -1.93 ± 0.085 | -0.946 ± 0.11
36 | ACUUAGCAAUAUUACGAACG | -1.16 ± 0.089 | -0.581 ± 0.1
37 | GGUUAGCAAUAUUACGACUG | -0.729 ± 0.1 | -0.796 ± 0.12
38 | CUCGAGCAAUAUUACGUAUU | -3.51 ± 0.15 | -1.96 ± 0.14
39 | UGGAAGCAAUAUUACGCCGG | -0.646 ± 0.17 | -0.109 ± 0.16
40 | CUUUAGCAAUAUUACGAGCG | -1.16 ± 0.073 | 0.0581 ± 0.12
41 | GAUCAGCAAUAUUACGCCGC | -2.29 ± 0.44 | -1.19 ± 0.28
42 | CGCUAGCAAUAUUACGCACU | -1.27 ± 0.089 | -0.65 ± 0.11
43 | AAGAAGCAAUAUUACGAUAA | -1.11 ± 0.12 | -1.07 ± 0.15
44 | GUCGAGCAAUAUUACGACAU | -0.997 ± 0.015 | -0.465 ± 0.033
45 | CCUUAGCAAUAUUACGUUUU | -4.8 ± 0.31 | -2.85 ± 0.28
46 | CUACAGCAAUAUUACGGGGC | -2.95 ± 0.2 | -2.57 ± 0.22
47 | CUGGAGCAAUAUUACGAUAG | -2.16 ± 0.25 | -1.38 ± 0.22
48 | GGGAAGCAAUAUUACGGGGU | – | -2.7 ± 0.34
49 | AAUCAGCAAUAUUACGGAAG | -1.75 ± 0.11 | -0.948 ± 0.12
50 | AGGGAGCAAUAUUACGAGGG | – | -2.2 ± 0.5

Row | Sequence | self-splicing fitness (ln) (30 °C) | self-splicing fitness (ln) (37 °C)
51 | CGCAAGCAAUAUUACGACUC | -1.3 ± 0.12 | -0.869 ± 0.19
52 | UAGCAGCAAUAUUACGCGGG | -2.24 ± 0.14 | -2.04 ± 0.2
53 | UCCGAGCAAUAUUACGAAUU | -3.49 ± 0.28 | -2.19 ± 0.35
54 | CCGAAGCAAUAUUACGCAUA | -2.88 ± 0.27 | -3.64 ± 0.31
55 | UACGAGCAAUAUUACGCUGG | -3.2 ± 0.27 | -1.77 ± 0.16
56 | GUCUAGCAAUAUUACGCAAA | -1.12 ± 0.13 | -0.541 ± 0.12
57 | CCCUAGCAAUAUUACGAUAC | -2.76 ± 0.38 | –
58 | GAGGAGCAAUAUUACGACAA | -2.14 ± 0.24 | -1.1 ± 0.27
59 | UUAUAGCAAUAUUACGUGGC | -3.14 ± 0.37 | -2.45 ± 0.39
60 | AAUGAGCAAUAUUACGUUAA | -2.76 ± 0.18 | -1.72 ± 0.17
61 | CAGAAGCAAUAUUACGUGUU | -4.1 ± 0.18 | -3.45 ± 0.16
62 | UGGUAGCAAUAUUACGUCAU | -2.49 ± 0.23 | -2.57 ± 0.36
63 | UGAAAGCAAUAUUACGUCGG | -1.12 ± 0.065 | -0.446 ± 0.082
64 | AUAAAGCAAUAUUACGGUUU | -0.835 ± 0.072 | -0.0425 ± 0.098
65 | UUGCAGCAAUAUUACGUUAC | -2.77 ± 0.15 | -2.18 ± 0.17
66 | UGCAAGCAAUAUUACGUGUA | -1.96 ± 0.073 | -1.35 ± 0.084
67 | UCCAAGCAAUAUUACGGAUA | -2.57 ± 0.13 | -1.22 ± 0.089
68 | AUUAAGCAAUAUUACGCAGU | -3.15 ± 0.21 | -2.48 ± 0.21
69 | GAGGAGCAAUAUUACGAGCU | – | -1.77 ± 0.47
70 | AGACAGCAAUAUUACGCUGA | -2.39 ± 0.16 | -1.75 ± 0.19
71 | CUGAAGCAAUAUUACGCAGA | -3.67 ± 0.19 | -2.71 ± 0.21
72 | CCGCAGCAAUAUUACGCACG | -0.993 ± 0.097 | -0.578 ± 0.11
73 | GUUCAGCAAUAUUACGUGUU | -1.84 ± 0.08 | 0.0147 ± 0.089
74 | GCCGAGCAAUAUUACGGGAA | -1.01 ± 0.073 | -0.813 ± 0.088
75 | AUUGAGCAAUAUUACGCCCU | -2.51 ± 0.24 | -0.951 ± 0.21

Row | Sequence | self-splicing fitness (ln) (30 °C) | self-splicing fitness (ln) (37 °C)
76 | UUAUAGCAAUAUUACGCAAC | -1.99 ± 0.34 | -1.6 ± 0.2
77 | CGCAAGCAAUAUUACGUAAA | -3.18 ± 0.14 | -2.12 ± 0.18
78 | CCAUAGCAAUAUUACGGAGU | -4 ± 0.29 | -2.42 ± 0.17
79 | UAAGAGCAAUAUUACGCUUU | -2.81 ± 0.18 | -1.85 ± 0.31
80 | ACCUAGCAAUAUUACGUUUG | -2.6 ± 0.08 | -2.03 ± 0.11
81 | GCGCAGCAAUAUUACGCAAG | -3.82 ± 0.23 | -2.52 ± 0.15
82 | UCAAAGCAAUAUUACGACCG | -0.525 ± 0.15 | 0.396 ± 0.21
83 | GACGAGCAAUAUUACGGCGU | -3.7 ± 0.32 | -1.9 ± 0.26
84 | GCAAAGCAAUAUUACGGAGC | -3.91 ± 0.34 | -2.07 ± 0.19
85 | CAGCAGCAAUAUUACGAGCA | -2.5 ± 0.12 | -1.04 ± 0.093
86 | GAGGAGCAAUAUUACGGGUA | – | -2.26 ± 0.36
87 | UGAUAGCAAUAUUACGAUUG | -0.719 ± 0.12 | -0.301 ± 0.15
88 | CCAUAGCAAUAUUACGUGAC | -2.57 ± 0.13 | -2.79 ± 0.3
89 | AUACAGCAAUAUUACGACCA | -0.419 ± 0.15 | -0.298 ± 0.17
90 | AUAGAGCAAUAUUACGGUGC | -1.96 ± 0.15 | -2.21 ± 0.46
91 | AUUUAGCAAUAUUACGUUGU | -3.01 ± 0.19 | -2.82 ± 0.27
92 | CGGUAGCAAUAUUACGCGUU | -3.55 ± 0.31 | -2.13 ± 0.21
93 | AGCGAGCAAUAUUACGGCGG | -1.1 ± 0.19 | -1.8 ± 0.24
94 | UGACAGCAAUAUUACGUAGU | -3 ± 0.17 | -1.22 ± 0.14
95 | GGAAAGCAAUAUUACGCAUA | -0.868 ± 0.1 | -1.5 ± 0.12
96 | AUGAAGCAAUAUUACGUACU | 0.105 ± 0.096 | 0.581 ± 0.11
97 | AUUUAGCAAUAUUACGUUUC | -2.86 ± 0.27 | -1.91 ± 0.34
